Consider 66 sequences from the supplement of paper PMC10126150.

± gives the standard deviation of the averaged measurements.
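Note: ATP exposure 15 min at 22 °C before imaging.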

This data set relates to ATP. The experiment in a line: switch fluorescence ratio, 500 uM ATP over buffer (Cy3 cluster intensity, sum of 5 cycles each) (fold (ratio)); higher = stronger signal-on switching upon ATP binding; sequences stand for … in TCGTCGGCAGCGTCAGATGTGTATAAGAGACAGTTTTTTTTTTTTTTTTTTTTTTTTT…TC. The conditions noted are these: aptamer strand: ATP DNA aptamer (quencher-CACCTGGGGGAGTATTGCGGAGGAAGG + anchor), 100 nM annealed; ATP concentration: 500 uM. The procedure, abridged: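 Imaging in selection buffer was followed by imaging after 15 min with 500 uM ATP at 22 °C, for Cy3-labelled switching-strand clusters annealed to 100 nM quencher-labelled ATP aptamer on a modified Illumina MiSeq flow-cell. Five of these buffer/ATP cycles ran, separated by NaOH stripping and re-annealing. The fluorescence ratio per cluster is summed target-cycle over summed buffer-cycle Cy3 intensity, averaged per switch-domain sequence; clusters outside 100-1000 RFU were removed.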
As to CTACATGCCC, the switch fluorescence ratio is 1.15 ± 0.18.

In the case of CATCGCATCT, the switch fluorescence ratio was determined as 1.79 ± 0.056.

In the case of TAGTTTTTTC, the switch fluorescence ratio turned out to be 0.99 ± 0.021.

With CGTATGGGGA, the switch fluorescence ratio was determined as 1 ± 0.023.

As for AGTCTGCTCG, the switch fluorescence ratio turned out to be 1 ± 0.018.

TGGATTATGA: the switch fluorescence ratio was determined as 0.955 ± 0.011.

In the case of GCTTCTTAGT, the switch fluorescence ratio was 1.028 ± 0.0053.

On to TTGTCTAGGT, for which the switch fluorescence ratio worked out at 1.01 ± 0.013.

GGGGTCGTTC: the switch fluorescence ratio was determined as 0.99 ± 0.028.

For AAAAATATGA, the switch fluorescence ratio is 1.01 ± 0.053.

As to TAATTGCCTT, the switch fluorescence ratio stood at 1.02 ± 0.017.

For AGTTTCAGGT, the switch fluorescence ratio was 1.005 ± 0.006.

With TTATTGGGTT, the switch fluorescence ratio is 0.995 ± 0.017.

For ATGGAACGGT, the switch fluorescence ratio was determined as 1.003 ± 0.0053.

On to TTAAGATAGT, for which the switch fluorescence ratio turned out to be 1.02 ± 0.028.

Turning to GACGGATACA, the switch fluorescence ratio amounted to 1.38 ± 0.091.

As to ATTGGGTTAG, the switch fluorescence ratio was determined as 0.975 ± 0.032.

In the case of TAGTTAGGCG, the switch fluorescence ratio amounted to 0.959 ± 0.028.

As for GCTCCATTTG, the switch fluorescence ratio was 0.983 ± 0.021.

As for CTGGTAGAGG, the switch fluorescence ratio was 0.979 ± 0.048.

In the case of ACTAGGGCGT, the switch fluorescence ratio was determined as 1 ± 0.033.

In the case of CAGGCGCTCT, the switch fluorescence ratio is 1.04 ± 0.054.

Regarding GGGCGTTTTT, the switch fluorescence ratio came out at 0.992 ± 0.017.

Take TGGCTGGAAG: the switch fluorescence ratio was 0.988 ± 0.027.

With TTAGAGGGGG, the switch fluorescence ratio was 1.01 ± 0.032.

Take GGCGACCTGG: the switch fluorescence ratio is 0.993 ± 0.021.

With TAGAAAATTT, the switch fluorescence ratio was 1 ± 0.022.

Turning to GCAATAGACT, the switch fluorescence ratio is 1.51 ± 0.04.

In the case of ATTTTGATAA, the switch fluorescence ratio is 1.02 ± 0.021.

As for TTCGTTGGGT, the switch fluorescence ratio amounted to 0.986 ± 0.016.

Take AAGCAGTCA: the switch fluorescence ratio amounted to 1.01 ± 0.038.

As to CATGTACGTG, the switch fluorescence ratio came out at 1.0359 ± 9.4e-05.

Consider GGAGGGCGGG, for which the switch fluorescence ratio amounted to 1.02 ± 0.021.

Consider TTTATCTGAT, for which the switch fluorescence ratio was determined as 0.965 ± 0.025.

Take GCTTATATAT: the switch fluorescence ratio amounted to 0.98542 ± 0.00086.

As to GTGGATTTTC, the switch fluorescence ratio came to 1 ± 0.062.

For AGCCTTATCC, the switch fluorescence ratio came out at 1.09 ± 0.02.

With ATGGAAATTG, the switch fluorescence ratio turned out to be 0.954 ± 0.019.

Turning to ACTAGTAACG, the switch fluorescence ratio came out at 0.9938 ± 0.0098.

Take TAGTATTAGA: the switch fluorescence ratio was found to be 0.993 ± 0.031.

As to GGCATTTGAC, the switch fluorescence ratio is 1.02 ± 0.006.

Turning to AAGTTAGGGA, the switch fluorescence ratio is 0.919 ± 0.083.

For the sequence AGTAGGCGCT, the switch fluorescence ratio came to 1.01 ± 0.048.

Regarding TAGGTGCATA, the switch fluorescence ratio is 1.03 ± 0.043.

Regarding TTTGCACAGC, the switch fluorescence ratio came to 0.997 ± 0.051.

TAGTTTGTTA: the switch fluorescence ratio worked out at 0.987 ± 0.027.

Regarding GTTAAAGGTA, the switch fluorescence ratio amounted to 0.962 ± 0.019.

Consider TCTGAGACGC, for which the switch fluorescence ratio stood at 1.05 ± 0.019.

GGAATATGTG: the switch fluorescence ratio is 0.998 ± 0.0093.

In the case of CCTCGGTTGG, the switch fluorescence ratio is 1.011 ± 0.0035.

For TTGGGTAATT, the switch fluorescence ratio turned out to be 0.998 ± 0.022.

For GCGGATAAGC, the switch fluorescence ratio amounted to 1.01 ± 0.039.

On to AGGGGTTCGG, for which the switch fluorescence ratio worked out at 0.992 ± 0.026.

As for GGGCAGGGAG, the switch fluorescence ratio was determined as 1 ± 0.017.

As to CAAGAGGGAC, the switch fluorescence ratio was 1.04 ± 0.13.

Consider TTTGAGAGCT, for which the switch fluorescence ratio was 0.977 ± 0.014.

For the sequence CTACAAGTTA, the switch fluorescence ratio came to 1.048 ± 0.0027.

Consider GGAGTACAAA, for which the switch fluorescence ratio was determined as 1.03 ± 0.033.

As for TTGTTTTGGG, the switch fluorescence ratio stood at 1 ± 0.019.

With CAGTAGCGGT, the switch fluorescence ratio amounted to 1.97 ± 0.35.

Regarding GATTTACCAG, the switch fluorescence ratio is 1.03 ± 0.027.

For AGAGTCGCGG, the switch fluorescence ratio came out at 1 ± 0.015.

As to GATATGGGCA, the switch fluorescence ratio was 1.04 ± 0.037.

For the sequence GAGACTTAGA, the switch fluorescence ratio stood at 1.007 ± 0.0038.

With CTGTGCAGCG, the switch fluorescence ratio stood at 1.01 ± 0.019.

As for CAAATACGTT, the switch fluorescence ratio came out at 1.01 ± 0.029.
